The source of these data is patent US20200317768A1 (published 2020).

For one experiment, the target named is T1, Human latent myostatin (human, UniProt O14793 25-266; O14793 267-375).
T1 construct: Biotinylated in the ELISAs; also called human myostatin latent form
T1 sequence 1: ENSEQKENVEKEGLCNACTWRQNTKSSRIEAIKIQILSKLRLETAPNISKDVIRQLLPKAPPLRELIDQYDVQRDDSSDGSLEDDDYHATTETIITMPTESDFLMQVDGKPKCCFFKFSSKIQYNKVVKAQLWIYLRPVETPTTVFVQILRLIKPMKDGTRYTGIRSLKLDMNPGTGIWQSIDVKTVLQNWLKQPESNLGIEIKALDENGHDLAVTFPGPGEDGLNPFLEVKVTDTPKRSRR
T1 sequence 2: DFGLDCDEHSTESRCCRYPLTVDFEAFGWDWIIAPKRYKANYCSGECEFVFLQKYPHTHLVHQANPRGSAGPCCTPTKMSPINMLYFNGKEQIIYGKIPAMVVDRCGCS
As to the kind of experiment: SPR (BIACORE T200), 37 C, pH7.4, 1:1 fit; title prints avidity, by the text the affinity condition (capture 18.5 RU); pH 7.4. As to the method: (§1) The kinetic parameters of anti-latent myostatin antibodies against human, cynomolgus monkey (cyno), and mouse latent myostatin were assessed at 37° C. at pH7.4 using a BIACORE® T200 instrument (GE Healthcare). ProA/G (Pierce) was immobilized onto all flow cells of a CM4 chip using amine coupling kit (GE Healthcare). Anti-latent myostatin antibody and analytes were prepared in ACES pH7.4 (20 mM ACES, 150 mM NaCl, 1.2 mM CaCl₂), 0.05% TWEEN® 20, 0.005% NaN₃). […] Then human, cyno, or mouse latent myostatin was injected at 3.125 to 50 nM prepared by two-fold serial dilution, followed by dissociation. The sensor surface was regenerated with 25 mM NaOH. Kinetic parameters were determined by processing and fitting the data to a 1:1 binding model using BIACORE® T200 Evaluation software, version 2.0 (GE Healthcare).
(§2) All experimental settings were the same as in Example 7, except that measurements were also performed in ACES pH5.8 buffer in addition to ACES pH7.4 condition. Some antibodies were only measured against human latent myostatin. Antibody capture level was aimed at 185 RU and 18.5 RU, for avidity and affinity assay, respectively. Kinetic parameters were determined using 1:1 Binding fitting using BIACORE® T200 Evaluation software, version 2.0 (GE Healthcare).

Another experiment concerns the target T2, Mouse latent myostatin (mouse, UniProt O08689 26-267; O08689 268-376).
T2 construct: signal 1-24
T2 sequence 1: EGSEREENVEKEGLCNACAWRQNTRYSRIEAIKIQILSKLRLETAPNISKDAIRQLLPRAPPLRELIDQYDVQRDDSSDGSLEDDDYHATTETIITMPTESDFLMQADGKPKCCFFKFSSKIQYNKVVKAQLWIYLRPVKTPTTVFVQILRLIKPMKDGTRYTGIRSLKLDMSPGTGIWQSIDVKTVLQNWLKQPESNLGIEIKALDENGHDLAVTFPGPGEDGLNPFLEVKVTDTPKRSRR
T2 sequence 2: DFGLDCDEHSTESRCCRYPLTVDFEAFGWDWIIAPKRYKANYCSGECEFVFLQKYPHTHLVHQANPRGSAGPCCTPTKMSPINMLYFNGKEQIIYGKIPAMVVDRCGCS
The experiment is described as above. As to the method: as §1, §2

B1: MS_M103205H000-SG1/M103202LO00-SK1 (antibody, human IgG1, kappa, V domains shown)
VH: QVTLKESGPVLVKPTETLTLTCTVSGIDLSSYDISWVRQAPGKGLEWVGIISYAGSTYYASWAKGRLTISKDTSKNQVVLTMTNMDPVDTATYYCARGVPAYSTGGDLWGQGTLVTVSS
VL: DIVMTQSPATLSLSPGERATLSCQSSQSVYDNNWLSWFQQKPGQPPKLLIYWASTLASGVPSRFSGSGSGTDFTLTISSLQPEDAATYYCAGGYGGGLYAFGQGTKVEIKR
notes: Humanized MST1032, not pH-dependent; also called MS1032LO00-SG1; Ab001
As for B1, in the experiment with Human latent myostatin, the Kd is 0.23 nM, the koff is 0.000245 s⁻¹ and the kon worked out at 1.07e+06 M⁻¹ s⁻¹. In addition, in the experiment with Mouse latent myostatin, the Kd stood at 0.122 nM, the koff was determined as 0.00016 s⁻¹ and the kon was determined as 1.31e+06 M⁻¹ s⁻¹.
